{
  "source": "the DeepSol protein solubility set",
  "data": [
    {"assay": "soluble on expression in E. coli; label from the status in PepcDB or PDB records", "values": [
      {"sequence": "MGSDKIHHHHHHAELPLEEGVSVRFEIKRDGVMSRAPGDAALSVNRILILPFRKTDEASSNDAANFVPEYSAARQLDVNSFPAVVTMLTLSAASTYQLLVIGYNRSDYDFASGGGATKRFNIGSTGNPATLANLYLQPVNPTVVPEFFSCFGNGYRGTTLVGPIFKPSQINYVTGTLKRLVSGFTLEVTNVPAYVNSMTLIAEQLVTATRATDGTALTWQTAGDGGTKTLATQAPVSGKVSFNQFLLAIPDSRKTLFYLDVSYGIFTERYTVKLPDTPGVVSGNRIIFTPNHWVKVTGSYANINIGFTLAGNINLDDNAWDGLQ", "soluble on expression in E. coli": "not soluble"},
      {"sequence": "GVVIREALSSSNAVPAIDFDRKELIDIPAYQGPGKNVVRPPVDLDPSYNPFKETGLTEPIRSSRRQSPDMGWNELFKQFEAKRDAEKMAEPPIRSEELFASTDFTPSAVSATPSTDMLCYVHRGRYLVTTLSRGLALVDFHRAHKRILYDRFMADESRRHIEQQQLLFPELLEFNPSDASAVKAAVDELQSVGFDLSPLGVSSYSLLAAPVQIIDCAADVVRDVIHTTLEDGRSSHEQMLELIATQIAEYQAIPCGKTPTAEEASDLLAELFASNDSTYTPDGKLIVSIIEEADIARRFE", "soluble on expression in E. coli": "not soluble"},
      {"sequence": "KEKVKEPVKHLNSKNFDEFITKNKIVVVDFWAEWCAPCLILAPVIEELANDYPQVAFGKLNTEESQDIAMRYGIMSLPTIMFFKNGELVDQILGAVPREEIEVRLKSLLE", "soluble on expression in E. coli": "soluble"},
      {"sequence": "GAMVSGQIMHAVGEEGGHVKYVCKIENYDQSTQVTWYFGVRQLENSEKYEITYEDGVAILYVKDITKLDDGTYRCKVVNDYGEDSSYAELFVKGVRE", "soluble on expression in E. coli": "soluble"},
      {"sequence": "MGSDKIHHHHHHMIKNLSKAKSTSKTSSTTSETLTPANYYDRWTDQSFMSATWFKKFLACEAEALAELTGKWQPVRDAKALVVGNWLHSYFESKQAHEKFKDEHPESISKRGPTKGQLKSDFKVANAMIQSLTNDHDFNLLYQGDKEVIVTGEIGGYPWKGKIDCLNLKQGYFVDLKTTADIYKVYWNPETREKESFVYAYNYPLQMAVYQELIKQQFGVTCKPYIVAVSKQDPPDKQAIDLPEYRLTNAMNQVLESQQHLQDIIKGEADPIQCGHCAYCRSTKKLESVVSADDLLID", "soluble on expression in E. coli": "not soluble"},
      {"sequence": "MSFSDHFSAVAASYAKARPRYPQRWFRYLARIVPDRQRVWDCATGNGQAAIALAEYFSEVIGSDASAAQVRQARSHPRVQYLVFPAEATPLAPASLDLITVAQAAHWFDLPQFYIEAQRLLRPGGVIALWGYGLGSLNPAIDHVFNHFYRDWLDPYWPPERQWVEQAYEGLSFPFEPLPTPTFSMQCDWTLFDLLAYLRTWSGVQQFQRQRGFDPVWAIAPELQRVWGDPQRYRRITWPLFAKVGRWQPDRVRLEHHHHHH", "soluble on expression in E. coli": "not soluble"},
      {"sequence": "LREQVQDLFNKKYGEALGIKYPVQVPYKRIKSNPGSVIIEGLPPGIPFRKPCTFGSQNLERILAVADKIKFTVTRPFQGLIPKPDE", "soluble on expression in E. coli": "soluble"},
      {"sequence": "AFVKMVGHHVAFLEADVLQAERDHGAFPQALRRWLGSAGLPSFRNVSGVQWHNPSSLQPPPPGFK", "soluble on expression in E. coli": "not soluble"},
      {"sequence": "MGSDKIHHHHHHMAIEITTAEKRLLQRVSIPPRPETLLTVSREAKKSEPDVNVIAESISADMSIAAAVLQVVNSAAYRRAREVDSIQQAVMTLGFRRVFPIVRAVALKSALTSDYDLSEFWRYNEWVAGACVMIAEAIGRPELRDHAYMLGLFQSSGIPVMLAEFDDYADLLNAAESTPWQQVQAKELELFQTSHTTIGALLAQQWKLPKIVVEVIYYLFEDSSIFNHSSELDNLTLDLLGILKISRYAIDLRTRSLAGEEEWQYVQDGVLEHFQIDEFKVDEMLQIVHEELFDTEA", "soluble on expression in E. coli": "not soluble"},
      {"sequence": "MSLGRNPPPAIGQFWHVTDLHLDPTYHITDDHTKVCASSKGANASNPGPFGDVLCDSPYQLILSAFDFIKNSGQEASFMIWTGDSPPHVPVPELSTDTVINVITNMTTTIQSLFPNLQVFPALGNHDYWPQDQLPVVTSKVYNAVANLWKPWLDEEAISTLRKGGFYSQKVTTNPNLRIISLNTNLYYGPNIMTLNKTDPANQFEWLESTLNNSQQNKEKVYIIAHVPVGYLPSSQNITAMREYYNEKLIDIFQKYSDVIAGQFYGHTHRDSIMVLSDKKGSPVNSLFVAPAVTPVKSVLEKQTNNPGIRLFQYDPRDYKLLDMLQYYLNLTEANLKGESIWKLEYILTQTYDIEDLQPESLYGLAKQFTILDSKQFIKYYNYFFVSYDSSVTCDKTCKAFQICAIMNLDNISYADCLKQLYIKHNYEGHHHHHH", "soluble on expression in E. coli": "soluble"},
      {"sequence": "MALIRATLPVVEPGRTEIHLPHWDGIEQQHGFIHGGVVGMIADSAAGYAAMTLVPAEASVLTVEYKMNLMAPAEGERLIARGEVVRAGRTLIVTRAEVLALRDGAERLCALMQQTIMVMHARPEKLDAPPAALEHHHHHH", "soluble on expression in E. coli": "not soluble"}
    ]}
  ]
}
